Biological target: CA1.CD2-P40 (CA1.CD2 PEGylated with P40) (rat) (UniProt P08921)
Assay: Western blot, CA1.CD2 PEGylated with P40

Chain of CA1.CD2-P40 (CA1.CD2 PEGylated with P40) (rat) (P08921 23-121 limits assumed): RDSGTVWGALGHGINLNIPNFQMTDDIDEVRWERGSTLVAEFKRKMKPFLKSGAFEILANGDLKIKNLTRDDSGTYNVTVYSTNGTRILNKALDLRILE

- decrease of binding against unmodified CA1.CD2: 50%
Substance: OX34 antibody

— patent US20180250426A1
